Source: patent US20230167177A1 (WUXI BIOLOGICS IRELAND, published 2023)
Positions count from the first letter of the chain named.

Columns and labels:
[1] = biological target: T1, human CTLA-4 on transfected cells (human, UniProt P16410 36-223); assay: FACS on human CTLA-4 expressing cells
T1 construct: whole, on cells; also called cell surface human CTLA-4; hCTLA4 transfected cells
Description: (§1) For FACS binding, engineered human CTLA-4 expressing cells were seeded at 1×10⁵ cells/well in U-bottom 96-well plates (COSTAR 3799). After centrifugation at 1500 rpm for 4 minutes at 4° C., the supernatants were moved and the serial dilutions of antibodies in 1% BSA-DPBS were added to the cells. The plates were incubated at 4° C. for 1 hour. […] The binding of the antibodies to the cells was tested by flow cytometry and the mean fluorescence intensity (MFI) was analyzed by FlowJo.

[2] = biological target: T2, cynomolgus CTLA-4 ECD protein (in house) (Macaca fascicularis (cynomolgus monkey), UniProt G7PL88 36-161); assay: ELISA, cyno CTLA4 ECD coated at 1.0 µg/ml
T2 construct: also called immobilized cyno CTLA-4 ECD protein; cyno CTLA4 ECD protein; not shown: C-terminal tag: 6xHis or Fc
T2 sequence (G7PL88 entry or part of it limits assumed): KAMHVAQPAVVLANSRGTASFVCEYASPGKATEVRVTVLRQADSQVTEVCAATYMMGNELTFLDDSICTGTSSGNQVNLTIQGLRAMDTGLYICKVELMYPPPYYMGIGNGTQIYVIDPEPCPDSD
Description: (§2) After blocking with 2% BSA-PBS, serial diluted antibodies were added into each well and incubated for 1 hour at room temperature. HRP-labeled goat anti-human IgG (Bethyl A80-304P) were used as the secondary antibody and incubated for 1 hour. The color was developed by TMB substrate, and then stopped by 2N HCl. The absorbance was read at 450 nm using a Microplate Spectrophotometer (SpectraMax® M5e).
(§3) The binding of testing antibodies to […] was assessed by ELISA and FACS as the described above. […] For FACS binding, engineered Cynomolgus CTLA4 expressing cell pool was used.

[3] = biological target: T3, human CTLA-4 ECD protein (in house) (human, UniProt P16410 36-161); assay: ELISA, human CTLA4 ECD coated at 1.0 µg/ml
T3 construct: extracellular domain; also called immobilized human CTLA-4 ECD protein; hCTLA-4; not shown: 6xHis or Fc tag
T3 sequence (P16410 36-161): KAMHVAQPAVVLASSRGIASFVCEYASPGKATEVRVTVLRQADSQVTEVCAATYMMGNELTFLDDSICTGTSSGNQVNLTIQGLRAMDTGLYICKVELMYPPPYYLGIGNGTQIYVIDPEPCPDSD
Description: as §2

[4] = biological target: T4, cynomolgus CTLA-4 on transfected cells (Macaca fascicularis (cynomolgus monkey), UniProt G7PL88 36-223); assay: FACS on cynomolgus CTLA4 expressing cell pool
T4 construct: also called cell surface cyno CTLA-4; Cynomolgus CTLA4 expressing cell pool
T4 sequence (G7PL88 entry or part of it limits assumed): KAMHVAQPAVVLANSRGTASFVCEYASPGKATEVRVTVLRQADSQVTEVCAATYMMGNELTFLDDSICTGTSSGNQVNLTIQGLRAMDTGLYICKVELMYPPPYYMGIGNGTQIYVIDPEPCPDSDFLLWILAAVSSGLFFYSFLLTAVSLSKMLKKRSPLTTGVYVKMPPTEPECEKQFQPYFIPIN
Description: as §1, §3

[5] = biological target: T3, human CTLA-4 ECD protein (in house); assay: competition ELISA, hCTLA4 ECD coated; competitor his-tagged hCD80
Description: (§4) After washing with PBST, biotin-labeled anti-His mAb (GenScript-A00613) was added and incubation 1 hour. […] The color reaction was developed by TMB substrate, and then stopped by 2N HCl. The absorbance was read at 450 nm using a Microplate Spectrophotometer (SpectraMax® M5e).

[6] = biological target: T3, human CTLA-4 ECD protein (in house); assay: competition ELISA, hCTLA4 ECD coated; competitor his-tagged hCD86
Description: as §4

hBTLA.His = biological target: T5, hBTLA.His (human, UniProt Q7Z6A9 31-157, limits assumed); assay: ELISA on coated BTLA.His, detected with HRP goat anti-human IgG
T5 construct: not shown: His tag
Description: (§5) After blocking with 2% BSA-PBS, 10 μg/ml and 1.0 μg/ml of testing antibodies were respectively added into the plates and incubated for 1 hour at room temperature. The secondary antibody HRP-labeled goat anti-human IgG (Bethyl A80-304P) was then added and incubated for 1 hour. Washes with PBST were performed between each step. The color reaction was developed by TMB substrate, and then stopped by 2N HCl. The absorbance was read at 450 nm using a Microplate Spectrophotometer (SpectraMax® M5e).

hICOS.mFC = biological target: T6, hICOS.mFC (human, UniProt Q9Y6W8 21-140); assay: ELISA on coated hICOS.mFc, detected with HRP goat anti-human IgG
T6 construct: not shown: mFc tag
T6 sequence (looked up): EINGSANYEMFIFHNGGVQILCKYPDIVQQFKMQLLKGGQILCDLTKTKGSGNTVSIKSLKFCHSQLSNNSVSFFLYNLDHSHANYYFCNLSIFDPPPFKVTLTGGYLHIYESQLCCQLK
Description: as §5

[7] = biological target: T3, human CTLA-4 ECD protein (in house); assay: competition FACS, biotinylated hCTLA4 ECD; competitor hCD80 on transfected cells
Description: (§6) After washing, streptavidin PE (BD Pharmingen-554061) was added to the cells and incubated at 4° C. for 1 hour. The fluorescence values were measured by flow cytometry and analyzed by FlowJo.

[8] = biological target: T3, human CTLA-4 ECD protein (in house); assay: competition FACS, biotinylated hCTLA4 ECD; competitor hCD86 on transfected cells
Description: as §6

[9] = biological target: T1, human CTLA-4 on transfected cells; assay: FACS on CTLA-4 transfected cells; antibody incubated in human serum at 37 C for 1 day
Description: (§7) Testing antibodies were incubated in freshly isolated human serum (serum content >90%) at 37° C. On indicated time points, an aliquot of serum treated sample was removed from the incubator and snap frozen in liquid nitrogen, and then stored at −80° C. until test. The samples were quickly thawed immediately prior to the stability test. Serial dilutions of antibodies were incubated with CTLA-4 transfected cells for 1 hour at 4° C. After washing, FITC conjugated goat anti-human IgG antibody (Jackson ImmunoResearch) was added to the cells and incubated at 4° C. for 1 hour. Finally, the cells were washed and resuspended in 1% BSA-PBS. The MFI fluorescence values were measured by flow cytometry and analyzed by FlowJo.

[10] = biological target: T1, human CTLA-4 on transfected cells; assay: FACS on CTLA-4 transfected cells; antibody incubated in human serum at 37 C for 0 days
Description: as §7

[11] = biological target: T1, human CTLA-4 on transfected cells; assay: FACS on CTLA-4 transfected cells; antibody incubated in human serum at 37 C for 4 days
Description: as §7

[12] = biological target: T1, human CTLA-4 on transfected cells; assay: FACS on CTLA-4 transfected cells; antibody incubated in human serum at 37 C for 7 days
Description: as §7

[13] = biological target: T1, human CTLA-4 on transfected cells; assay: FACS on CTLA-4 transfected cells; antibody incubated in human serum at 37 C for 14 days
Description: as §7

hPD-1.mFc = biological target: T7, hPD-1.mFc (human, UniProt Q15116 25-170); assay: ELISA on coated hPD1 (sheet prints 'hPD1.His', text says hPD-1.mFc), detected with HRP goat anti-human IgG
T7 construct: not shown: mFc tag
T7 sequence (Q15116 25-170): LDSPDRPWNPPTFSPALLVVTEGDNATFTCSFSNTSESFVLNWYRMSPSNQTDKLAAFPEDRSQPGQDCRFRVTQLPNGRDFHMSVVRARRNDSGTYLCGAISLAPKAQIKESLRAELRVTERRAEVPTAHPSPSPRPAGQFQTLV
Description: as §5

hCD28.mFc = biological target: T8, hCD28.mFc (human, UniProt P10747 19-152); assay: ELISA on coated hCD28 (sheet prints 'hCD28.His', text says hCD28.mFc), detected with HRP goat anti-human IgG
T8 construct: not shown: mFc tag
Description: as §5

[14] = biological target: T3, human CTLA-4 ECD protein (in house); assay: competition (epitope binning) ELISA on coated human CTLA4 protein; competitor 0.02 ug/ml W316-BMK1-Biotin, detected with streptavidin-HRP
Description: After washing, HRP-conjugated streptavidin were added and incubated for 1 hour. The color was developed by dispensing TMB substrate, and then stopped by 2N HCl. The absorbance was read at 450 nm using a Microplate Spectrophotometer (SpectraMax® M5e).

[15] = biological target: T1, human CTLA-4 on transfected cells; assay: cell-based or functional assay
[16] = biological target: T4, cynomolgus CTLA-4 on transfected cells; assay: FACS affinity on cyno CTLA-4 transfected cells (cPro1), quantitative beads
Description: (§8) Human CTLA-4 or cyno CTLA-4 transfected cells were plated into 96-well U-bottom plates (BD) at a density of 5×10⁴ cells/well. Testing antibodies were 1:2-fold serially diluted in 1% BSA-PBS and incubated with the cells at 4° C. for 1 hr. After centrifugation at 1500 rpm for 4 min, the supernatant was discarded. The secondary antibody FITC conjugated goat anti-human IgG Fc (Jackson Immunoresearch Lab) was added and incubated at 4° C. in the dark for 30 min. The cells were then washed once and re-suspended in 1% BSA-PBS for the analysis by flow cytometry (BD CantoII). Fluorescence intensity was converted to bound molecules/cell based on the quantitative beads (Quantum™ MESF Kits, Bangs Laboratories). KD was calculated using Graphpad Prism5.

[17] = biological target: T1, human CTLA-4 on transfected cells; assay: FACS affinity on human CTLA-4 transfected cells (hPro1), quantitative beads
Description: as §8

[18] = biological target: T9, human CTLA-4 ECD, His-tagged (human, UniProt P16410 36-161); assay: SPR (Biacore T200), antibody captured by anti-human IgG Fc, CTLA-4 ECD his as analyte
T9 construct: extracellular domain; also called W316.hprol.ECD.his; hCTLA-4.His; not shown: hexa-histidine (6xHis) tag
T9 sequence (P16410 36-161): as the sequence (P16410 36-161) above
Description: The experiment was to measure the on-rate constant (ka) and off-rate constant (kd) of the antibodies to CTLA-4 ECD based on SPR technology. The affinity constant (KD) is thus consequently determined. Biacore T200, Series S Sensor Chip CM5, Amine Coupling Kit, and 10XHBS-EP were from GE Healthcare. […] In immobilization step, the activation buffer was prepared by mixing 400 mM EDC and 100 mM NHS immediately prior to injection. The CM5 sensor chip was activated for 420 s with the activation buffer. 30 μg/mL of goat anti-human IgG Fc antibody in 10 mM NaAc (pH 4.5) was then injected to Fc1-Fc4 channels for 200 s at a flow rate of 5 μL/min. The chip was deactivated by 1 M ethanolamine-HCl (GE). Then the antibodies were captured on the chip. Briefly, 4 μg/mL antibodies in running buffer (HBS-EP+) was injected individually to Fc3 channel for 30 s at a flow rate of 10 μL/min. […] Regeneration buffer (10 mM Glycine pH 1.5) was injected at 10 μL/min for 30 s following every dissociation phase.

T1 sequence (P16410 36-223): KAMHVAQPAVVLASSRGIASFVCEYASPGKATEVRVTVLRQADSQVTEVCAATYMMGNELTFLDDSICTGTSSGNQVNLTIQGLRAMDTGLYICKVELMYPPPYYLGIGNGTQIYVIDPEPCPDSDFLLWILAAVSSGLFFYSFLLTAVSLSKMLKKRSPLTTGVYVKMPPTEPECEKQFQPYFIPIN

B1: W3166-z13 (Fc fusion)
chain: QVQLVESGGGLVQPGGSLRLSCAASGRTFSSYAMGWFRQAPGMEREFVASIRWSDQTTYVPNSVKGRFTISRDNSKNTLYLQMNSLRPEDTAVYYCATGPTRLSFYSGNYRTYDSWGQGTLVTVSS
notes: Tested as VHH linked to human IgG1 Fc; also called humanized VHH antibody W3166-z13; W3166-z13 VHH fused with Fc of human IgG1; not shown: human IgG1 Fc region
In the case of B1, the EC50 [1] is reported as 0.325 nM, the EC50 [2] is reported as 0.0732 nM and the EC50 [3] is reported as 0.0983 nM. The EC50 [4] was 1.5 nM, the IC50 [5] was 1.1 nM and the IC50 [6] was 2.06 nM. The binding result (hBTLA.His) was “no binding (tested: 10 ug/ml)”, the binding result (hICOS.mFC) was “no binding (tested: 10 ug/ml)” and the IC50 [7] was 0.109 nM. It also gave an IC50 [8] of 0.22 nM, an EC50 [9] of 0.221 nM and an EC50 [10] of 0.214 nM. For the same binder, the EC50 [11] was 0.237 nM, the EC50 [12] was 0.223 nM and the EC50 [13] was 0.244 nM. For the same binder, the binding result (hPD-1.mFc) was “no binding (tested: 10 ug/ml)”, the binding result (hCD28.mFc) was “no binding (tested: 10 ug/ml)” and the “IC50 (read off the curve)” value [14] was about 3 nM.

B2: W3166-z17 (Fc fusion)
chain: B1 chain with L11V, M43K
notes: Tested as VHH linked to human IgG1 Fc; also called humanized VHH antibody W3166-z17; W3166-z17 VHH fused with Fc of human IgG1; not shown: human IgG1 Fc region
With B2 the “EC50 in inducing ADCC effect” value [15] was 0.247 nM, the EC50 [1] was 0.297 nM and the EC50 [2] was 0.0401 nM. It also gave an EC50 [3] of 0.0512 nM, an EC50 [4] of 1.16 nM and an IC50 [5] of 0.908 nM. The IC50 [6] was 1.67 nM, the binding result (hBTLA.His) was “no binding (tested: 10 ug/ml)” and the binding result (hICOS.mFC) was “no binding (tested: 10 ug/ml)”. It also gave a Kd [16] of 0.14 nM, a Kd [17] of 0.049 nM and an IC50 [7] of 0.0786 nM. The IC50 [8] was 0.163 nM, the Kd [18] was 3.13 nM and the koff [18] was 0.0015 s⁻¹. It also gave a kon [18] of 481000 M⁻¹ s⁻¹, an EC50 [9] of 0.195 nM and an EC50 [10] of 0.19 nM. The EC50 [11] was 0.193 nM, the EC50 [12] was 0.221 nM and the EC50 [13] was 0.199 nM. The binding result (hPD-1.mFc) was “no binding (tested: 10 ug/ml)”, the binding result (hCD28.mFc) was “no binding (tested: 10 ug/ml)” and the “IC50 (read off the curve)” value [14] was about 3 nM.
